This experiment has as its target T1, human CCR8 (human, UniProt P51685 1-355).
T1 construct: the assay field says which; also called hCCR8; huCCR8
As to the kind of experiment: flow cytometry, CHO-huCCR8.Gna15 cells, relative to rb.Ab5. As for the experimental part: Evaluation of CCR8 binding of the humanized variants with a hIgG1 Fc involved screening by flow cytometry, and comparing the relative EC₅₀ and MFI on human CCR8 CHO cells to the parental rabbit antibodies. Specifically, stable CHO-huCCR8.Gna15 cells were stained with various concentrations (starting from 10 ug/ml or 66.66 nM, 1:4 serial dilution for total 8 concentration points) of Ab4 and Ab5 variants at 4° C. for 30 minutes, then washed twice with FACS buffer (PBS with 0.5% BSA and 0.2 mM EDTA) and followed by staining with AF647-anti-hIgG at 4° C. for 15 min. Cells were washed twice with FACS buffer, and re-suspended in FACS buffer with propidium iodide (0.5 ug/ml) and analyzed with iQue3 (Sartorius).

Substitutions are numbered along the chain they refer to.

B1: hu.Ab5.H2L1 (antibody, human IgG1, kappa)
heavy: not shown
light: DIQVTQSPSSLSASVGDRVTITCQASENIANALAWYQQKPGKPPKFLIYGASNLASGVPSRFSGSGSGTDFTFTISSLQPEDIATYYCQQAYYGNSFVEGTFGGGTKVEIKRTVAAPSVFIFPPSDEQLKSGTASVVCLLNNFYPREAKVQWKVDNALQSGNSQESVTEQDSKDSTYSLSSTLTLSKADYEKHKVYACEVTHQGLSSPVTKSFNRGEC
As to B1, the “Relative EC50” value stood at 1.1 ratio and the “Relative MFI” value was 0.93 ratio.

B2: hu.Ab5.H5L1 (antibody, human IgG1, kappa, V domains shown)
VH: EQQLLESGGGLVQPGGSLRLSCAVSGIDLSTYAMGWVRQAPGKGLEWISLIHRSGRTYYATWAKGRFTISKDSSKTTVYLQMNSLRAEDTAVYFCTRSYPDYSATASIWGPGTTVTVSS
VL: DIQVTQSPSSLSASVGDRVTITCQASENIANALAWYQQKPGKPPKFLIYGASNLASGVPSRFSGSGSGTDFTFTISSLQPEDIATYYCQQAYYGNSFVEGTFGGGTKVEIKR
With B2, the “Relative EC50” value worked out at 7.6 ratio and the “Relative MFI” value was determined as 0.35 ratio.

B3: hu.Ab5.H10L1 (antibody, human IgG1, kappa, V domains shown)
VH: B2 VH with S49G, F94Y
VL: B2 VL
As for B3, the “Relative EC50” value came out at 1.2 ratio and the “Relative MFI” value is 0.87 ratio.

B4: hu.Ab5.H11L1 (antibody, human IgG1, kappa)
heavy: not shown
light: B1 light
As for B4, the “Relative EC50” value was 1.3 ratio and the “Relative MFI” value was found to be 0.87 ratio.

B5: hu.Ab5.H3L1 (antibody, human IgG1, kappa, V domains shown)
VH: B2 VH with V24A, S49G
VL: B2 VL
As for B5, the “Relative EC50” value worked out at 1.5 ratio and the “Relative MFI” value amounted to 1 ratio.

B6: hu.Ab5.H7L1 (antibody, human IgG1, kappa, V domains shown)
VH: B2 VH with S49G, S73N
VL: B2 VL
For the molecule B6, the “Relative EC50” value came out at 2.2 ratio and the “Relative MFI” value was determined as 0.96 ratio.

B7: hu.Ab5.H6L1 (antibody, human IgG1, kappa, V domains shown)
VH: B2 VH with S49G, K71R
VL: B2 VL
For B7, the “Relative EC50” value was 2.4 ratio and the “Relative MFI” value is 0.97 ratio.

B8: hu.Ab5.H8L1 (antibody, human IgG1, kappa, V domains shown)
VH: B2 VH with S49G, T76N
VL: B2 VL
B8: the “Relative EC50” value is 1.4 ratio and the “Relative MFI” value came out at 0.94 ratio.

B9: hu.Ab5.H9L1 (antibody, human IgG1, kappa, V domains shown)
VH: B2 VH with S49G, V78L
VL: B2 VL
With B9, the “Relative EC50” value came to 1.3 ratio and the “Relative MFI” value was 0.92 ratio.

B10: hu.Ab5.H4L1 (antibody, human IgG1, kappa, V domains shown)
VH: B2 VH with I48V, S49G
VL: B2 VL
B10: the “Relative EC50” value amounted to 1.5 ratio and the “Relative MFI” value is 0.95 ratio.

B11: hu.Ab5.H12L1 (antibody, human IgG1, kappa, V domains shown)
VH: B2 VH with Q2V, V24A, I48V, K71R, S73N, T76N, V78L, F94Y, P111Q
VL: B2 VL
For the molecule B11, the “Relative EC50” value came to 2.3 ratio and the “Relative MFI” value was determined as 0.26 ratio.
